Assays:
[1] = target: mutant membrane-bound TNFα on stably transfected CHO cells (B-220 cells) (UniProt P01375); assay: FACS, gate P4: CHO cells bound to anti-CD19 beads (FIG. 3 middle panel)
[2] = target: mutant membrane-bound TNFα on stably transfected CHO cells (B-220 cells) (UniProt P01375); assay: FACS, gate P4: CHO cells bound to anti-CD19 beads, mixed beads (FIG. 4)

UniProt P01375, sequence (P01375 other isoform, or with tags, fused parts or gaps mutant limits assumed): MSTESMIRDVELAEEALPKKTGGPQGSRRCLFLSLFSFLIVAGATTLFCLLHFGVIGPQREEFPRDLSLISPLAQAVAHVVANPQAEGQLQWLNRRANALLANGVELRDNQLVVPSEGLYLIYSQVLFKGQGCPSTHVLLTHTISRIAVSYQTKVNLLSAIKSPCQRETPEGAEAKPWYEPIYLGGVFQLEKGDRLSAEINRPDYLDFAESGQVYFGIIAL

# Events [1]: 6 events
# Events [2]: 2 events
Substance: APC-labeled unrelated antibody (anti-CD19) coated on beads
